Read-outs that look alike come from different tables or passages of the source.
Legend:
[1] = target: HIV-1 reverse transcriptase (heterodimer) (HIV-1) (UniProt P04585+P04585); details: 100% incorporation with Mg2+; 37 C; 50% inhibition at Mn2+:Mg2+ ratio 7e-4
[2] = target: T1, Ty1 reverse transcriptase D211N D211N (Saccharomyces cerevisiae Ty1 retrotransposon) (UniProt Q07163); details: 22 C, 20 mM KCl, pH 7.8
T1 sequence: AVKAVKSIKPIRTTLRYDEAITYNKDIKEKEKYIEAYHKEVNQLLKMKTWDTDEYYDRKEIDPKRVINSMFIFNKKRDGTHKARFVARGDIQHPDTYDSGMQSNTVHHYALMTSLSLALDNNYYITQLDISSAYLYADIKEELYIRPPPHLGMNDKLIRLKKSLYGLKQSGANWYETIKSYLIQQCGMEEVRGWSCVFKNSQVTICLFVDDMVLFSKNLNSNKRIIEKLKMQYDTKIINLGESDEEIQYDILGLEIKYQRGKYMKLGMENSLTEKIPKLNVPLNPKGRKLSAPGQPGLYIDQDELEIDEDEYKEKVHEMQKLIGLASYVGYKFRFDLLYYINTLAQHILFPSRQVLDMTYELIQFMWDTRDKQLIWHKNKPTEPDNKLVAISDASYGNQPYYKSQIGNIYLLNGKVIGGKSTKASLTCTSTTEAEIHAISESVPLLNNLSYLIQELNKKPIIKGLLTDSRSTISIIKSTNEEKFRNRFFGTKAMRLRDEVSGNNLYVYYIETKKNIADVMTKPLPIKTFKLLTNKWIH

[3] = target: T2, Ty1 reverse transcriptase (wild-type) (Saccharomyces cerevisiae Ty1 retrotransposon) (UniProt Q07163); details: 22 C, 20 mM KCl, pH 7.8
T2 sequence: T1 sequence

[4] = target: T3, Ty1 VLP-associated reverse transcriptase (Saccharomyces cerevisiae Ty1 retrotransposon) (UniProt Q07163); details: 100% incorporation with Mg2+; 22 C; 50% inhibition at Mn2+:Mg2+ ratio 8e-3
T3 sequence: T1 sequence

Work on oligo(dG)12-18/poly(rC) primer-template yielded an activity (pmol dGTP/ug RT per 60 min) [1] of 205, an activity ([2]; kcat with Mg2+, K0.5 Mg2+ 6.3 mM) of 1.6 h⁻¹ and an activity ([2]; kcat with Mn2+, K0.5 Mn2+ 0.02 mM) of 0.57 h⁻¹. The activity ([3]; kcat with Mg2+, K0.5 Mg2+ 0.13 mM) was 1.61 h⁻¹, the activity ([3]; kcat with Mn2+, K0.5 Mn2+ 19.9 mM) was 0.56 h⁻¹ and the activity (pmol dGTP/ul VLP per 60 min) [4] was 5.

From patent publication US7601489
